Measurements: patent US20220267460A1

Key:
FcγRIIIa = FcγRIIIa (UniProt P08637); assay: cell-based or functional assay
[1] = target: human FcγRIIa-H variant (Histidine at amino acid 131) (human) (UniProt P12318); assay: cell-based or functional assay
Sequence of human FcγRIIa-H variant (Histidine at amino acid 131) (human) (P12318 34-317, change not shown): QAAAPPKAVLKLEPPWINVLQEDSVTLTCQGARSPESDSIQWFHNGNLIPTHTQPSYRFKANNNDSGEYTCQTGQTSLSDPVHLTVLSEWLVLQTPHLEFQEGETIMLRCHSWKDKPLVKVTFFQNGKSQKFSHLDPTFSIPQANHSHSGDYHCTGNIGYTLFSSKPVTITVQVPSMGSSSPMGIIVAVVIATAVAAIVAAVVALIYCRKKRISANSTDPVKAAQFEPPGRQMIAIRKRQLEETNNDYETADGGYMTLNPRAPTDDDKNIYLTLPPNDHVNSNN

Sequence of FcγRIIIa (P08637 17-254 F176V limits assumed): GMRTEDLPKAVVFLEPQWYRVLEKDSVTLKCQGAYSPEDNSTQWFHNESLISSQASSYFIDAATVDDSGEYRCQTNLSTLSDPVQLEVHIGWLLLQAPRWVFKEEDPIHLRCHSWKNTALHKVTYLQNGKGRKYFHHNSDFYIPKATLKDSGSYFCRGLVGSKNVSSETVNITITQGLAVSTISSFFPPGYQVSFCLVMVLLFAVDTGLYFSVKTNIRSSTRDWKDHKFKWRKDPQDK

## avelumab (Bavencio) monoclonal antibody, fucosylated
FcγRIIIa
  EC50 (nM) Mean, FcγRIIIa signaling in ADCC reporter assay (HEK-PD-L1 target cells, Jurkat/FcγRIIIa effector cells, luciferase): 0.049 nM

## obinutuzumab monoclonal antibody, fucosylated
FcγRIIIa
  EC50 (nM) Mean, FcγRIIIa signaling in ADCC reporter assay (Raji target cells, Jurkat/FcγRIIIa effector cells, luciferase): 0.08 nM
[1]
  EC50 (nM) Mean, FcγRIIa signaling in ADCP reporter assay (Raji target cells, Jurkat/FcγRIIa-H effector cells, luciferase): 7.1 nM
